In patent publication US20090010987A1, “Methods and Devices for Reducing Tissue Damage After Ischemic Injury” (Conor Medsystems, Inc., priority 2005, published 2009):

Test: Retention of insulin bioactivity when delivered in PLGA
Type: physicochemical
Details: delivered in poly(lactide-co-glycolide) (PLGA)
Description: Protein or peptide drugs can be human, non-human, recombinant or synthetic and can be the full length native form or an active fragment thereof. Preferably the insulin is a stable, short acting form which is resistant to radiation. Insulin in its crystalline form may be used for improved resistance to radiation. When the insulin is combined with a polymer, an agent may be added to preserve bioactivity. […] For substantially longer administration periods, a buffering agent such as hydroxyapatite may be used to maintain the pH as the polymer degrades to release acidic byproducts.

Insulin: hormone which improves glycolic metabolism and ATP production; anti-ischemic agent
period over which bioactivity is retained: at least 24 hours
